Consider one substance from publication PMC3752660.

The assay addresses His6-Rv3208 (FasR from M. tuberculosis) (M. tuberculosis H37Rv). Kind of assay: SEC. On the technique in general: SEC sorts molecules by how far they enter the pores of the column.

As for “His6-Rv3208 (FasR from M. tuberculosis) (natural protein)”, the stoichiometry N (usually a count of units in the complex or per binding partner) was 2.
